US7390645B2, “Lactose repressor proteins with increased operator DNA binding affinity” (William Marsh Rice University, priority 1997, dated 2008)
Changes are numbered by the printed parent chain. “Also recorded” adds a separate entry of the source. Where two headings read alike, the source gives them in different places.

Columns and labels:
[1] = target: O^1 operator sequences (lac operator DNA); assay: lac operator DNA binding of lac repressor proteins characterized in vitro; set-up: species or system E. coli; settings: for affinity for lac operator DNA (in words): relative to wild-type lac repressor unless stated
Source text: The term “affinity”, as used in conjunction with the lac operator or an inducer ligand, is defined as 1/Kd, where Kd is the concentration of DNA or ligand required to occupy 50% of the available binding sites.
(§1) To test an altered lac repressor protein, the coding sequence for the altered lac repressor protein can be cloned into an expression vector. The expression vector can then be placed into bacterial or eukaryotic cells containing a reporter gene under lac operator control to test for an active repressor protein. For example, a reporter containing E. coli β-galactosidase (encoded by lacZ) has been constructed by excising the lacZ gene under control of the lac operator from the plasmid pCR2.1 (Invitrogen) and inserting it into plasmid pACYC184 (New England Biolabs). This new composite reporter plasmid is named pZCam and can be co-transformed or electroporated into bacteria with the plasmids containing the coding sequences of altered lac repressor proteins. Host cells for these plasmids should have neither lactose repressor nor β-galactosidase proteins (i.e., the cells are lacI^− lacZ^−). Next, these bacteria are plated in the presence of either methyl umbelliferyl-β-D-galactoside (MUG) or 5-bromo-4-chloro-3-indolyl-β,D-galactoside (X-gal) as indicators to determine whether an active repressor protein is present (white colonies). In the presence of an inducer sugar, colonies containing inducer-responsive repressor protein will be fluorescent (MUG) or blue (X-gal). Alternatively, the coding sequence can be cloned into any expression vector known in the art and transformed into E. coli that are lacI^−, preferably ΔlacI, and lacpOz^+. The lacpOz region can be on a different, but compatible, plasmid or in the bacterial genome. Colonies containing active repressor protein will be white in the absence of an inducer and fluorescent (MUG) or blue (X-gal) in the presence of an inducer. Specific amino acid changes that result in increased operator binding affinity or enhanced ligand responsivity can be determined. LacI derivatives with appropriate properties are then isolated and characterized in vitro for their (a) O^1 operator DNA binding properties in the absence and presence of the appropriate inducer ligand and (b) inducer ligand binding properties in the absence and presence of operator DNA. Purified proteins can be obtained by standard protein purification methods known to those of skill in the art.

[2] = responsivity of lac repressor proteins to inducer ligand; format: biochemical, E. coli; settings: relative to wild-type lac repressor
Source text: as §1
Mutants can be screened by phenotypic analysis as described above. In the preferred forms, the plasmid containing the gene for altered lac repressor protein is either co-transformed with the reporter plasmid pZCam or is transformed into E. coli that are ΔlacI and lacpOz^+. Introduction of wild-type lac repressor protein into bacteria containing pZCam or into the ΔlacI/lacpOz^+ bacteria results in white colonies in the presence of MUG or X-gal. In contrast, in the presence of IPTG or the alternative ligand, the colonies are fluorescent (MUG) or blue (X-gal). […]

[3] = system: O^1 operator sequences (lac operator DNA); settings: relative to wild-type lac repressor; cited from earlier work
[4] = reduced form; cited from earlier work
[5] = read-out: Kd for O^1 operator sequences

B1: Gln60Gly: altered lac repressor protein with glycine substituted for glutamine at amino acid number 60; SEQ ID NO:2 (protein, listed as Escherichia coli)
chain: MKPVTLYDVAEYAGVSYQTVSRVVNQASHVSAKTREKVEAAMAELNYIPNRVAQQLAGKGSLLIGVATSSLALHAPSQIVAAIKSRADQLGASVVVSMVERSGVEACKAAVHNLLAQRVSGLIINYPLDDQDAIAVEAACTNVPALFLDVSDQTPINSIIFSHEDGTRLGVEHLVALGHQQIALLAGPLSSVSARLRLAGWHKYLTRNQIQPIAEREGDWSAMSGFQQTMQMLNEGIVPTAMLVANDQMALGAMRAITESGLRVGADISVVGYDDTEDSSCYIPPLTTIKQDFRLLGQTSVDRLLQLSQGQAVKGNQLLPVSLVKRKTTLAPNTQTASPRALADSLMQLARQVSRLESGQ
[1]; presence of 1 mM IPTG, read-out: Kd for O^1 operator sequences in the presence of 1 mM IPTG
  Kd: > 100 nM
[1]; [5]
  Kd: 0.004 nM
[1]
  affinity for lac operator DNA (in words): increased affinity for operator sequences
[2]
  responsivity to inducer (in words): close to normal responsivity to inducer

B2: Pro320Ala: lac repressor protein Pro320Ala identified by random mutagenesis and phenotypic screening (protein)
chain: B1 chain with G60Q, P320A
[1]; higher affinity than wild-type
  operator DNA affinity relative to wild-type lac repressor: 10 fold
[1]
  affinity for lac operator DNA (in words): increased DNA affinity
[2]
  responsivity to inducer (in words): normal inducer responsivity; also recorded: wild-type inducer responsivity

B3: Gln60Gly/Leu148Phe (protein)
chain: B1 chain with L148F
[1]
  affinity for lac operator DNA (in words): increased affinity for operator sequence compared to Leu148Phe (affinity comparable to wild-type lac repressor)
[2]
  responsivity to inducer (in words): enhanced inducer responsivity comparable to Leu148Phe

B4: Gln55Glu: Gln55Glu mutant of the lac repressor (protein)
chain: B1 chain with Q55E, G60Q
[3]
  affinity for lac operator DNA (in words), from cited work: decreased affinity for lac operator DNA

B5: Leu148Phe (protein)
chain: B1 chain with G60Q, L148F
[1]
  affinity for lac operator DNA (in words): slightly diminished DNA affinity; also recorded: diminished affinity for operator sequences
[2]
  responsivity to inducer (in words): enhanced responsivity to IPTG

B6: Val52Cys: mutation of lac repressor amino acid 52 from Val to Cys (protein)
chain: B1 chain with V52C, G60Q
[3]
  affinity for lac operator DNA (in words), from cited work: increased affinity for the lac operator DNA
[4]
  response to inducer (in words), from cited work: normal response to inducer in reduced form

B7: wild-type LacI: naturally occurring E. coli lac repressor protein (LacI); SEQ ID NO:1 (protein, listed as Escherichia coli)
chain: B1 chain with G60Q
[1]; [5]
  Kd: 0.012 nM
